The values below come from US20180037651A1 (Janssen / Centocor, published 2018).

In one assay the target is T1, cyno GPRC5D (cyno, UniProt Q9NZD1 1-343 (human entry)).
T1 chain: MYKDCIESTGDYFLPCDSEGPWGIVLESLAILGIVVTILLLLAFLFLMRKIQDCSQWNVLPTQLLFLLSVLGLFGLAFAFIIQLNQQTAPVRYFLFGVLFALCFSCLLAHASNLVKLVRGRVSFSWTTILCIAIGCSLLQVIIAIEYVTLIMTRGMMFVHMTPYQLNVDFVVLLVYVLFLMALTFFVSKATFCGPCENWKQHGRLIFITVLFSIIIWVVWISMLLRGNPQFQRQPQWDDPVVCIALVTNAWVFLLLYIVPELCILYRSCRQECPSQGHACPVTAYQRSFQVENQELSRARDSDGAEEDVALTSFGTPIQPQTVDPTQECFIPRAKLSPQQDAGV
Put plainly: cell-based or functional assay.

Assay [1] concerns the target T2, human GPRC5D (human, UniProt Q9NZD1 1-345).
T2 construct: on transfected HEK293/RBL cells or endogenous on myeloma cells (H929, MM1R, OPM2, LP1, JIM3, patient plasma cells); also called G protein-coupled receptor class C group 5 member D; hGPRC5D
The assay is described as follows: FACS, MM1R, H929 and human GPRC5D HEK293 cells.

Assay [2] deals with T2, human GPRC5D. Put plainly: FACS, GPRC5D+ MM1.R cells. For orientation: Flow cytometry measures light scatter and fluorescence of single cells or particles in a stream.
Experimental: The binding affinities of the GPRC5D antibodies on GPRC5D⁺ human MM cell line (MM1.R, purchased from ATCC (American Type Culture Collection)) were measured using FACS.
Binding is expressed as normalized geometrical mean fluorescence intensity as determined by FACS. Graphing and fitting of data were done in GraphPad Prism 6 using nonlinear regression with variable slope (four parameters) and least square fit method.

By EC50 is commonly meant the concentration that produces a half-maximal response. The low end stands for greater potency, the high end for weaker potency.

T2 sequence (Q9NZD1 whole entry): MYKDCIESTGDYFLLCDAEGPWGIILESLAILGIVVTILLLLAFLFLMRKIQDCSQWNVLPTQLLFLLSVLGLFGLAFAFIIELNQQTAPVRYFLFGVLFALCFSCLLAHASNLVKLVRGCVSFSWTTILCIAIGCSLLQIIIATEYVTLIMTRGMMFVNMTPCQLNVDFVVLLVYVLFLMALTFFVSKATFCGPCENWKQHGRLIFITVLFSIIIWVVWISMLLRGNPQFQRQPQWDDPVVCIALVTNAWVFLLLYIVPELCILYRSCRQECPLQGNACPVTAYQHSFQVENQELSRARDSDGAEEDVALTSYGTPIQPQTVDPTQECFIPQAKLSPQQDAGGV

B1: GCDB45 (bispecific antibody, IgG4, V domains shown)
VH 1: EVQLVQSGAEVKKPGESLKISCKGSGYSFTSYWIGWVRQMPGKGLEWMGIIYPGDSDTRYSPSFQGQVTISADKSISTAYLQWSSLKASDTAMYYCARIGFYGRSFRIFDYWGQGTLVTVSS
VL 1: EIVLTQSPATLSLSPGERATLSCRASQSVSSYLAWYQQKPGQAPRLLIYDASNRATGIPARFSGSGSGTDFTLTISSLEPEDFAVYYCQQRSNWPLTFGQGTKVEIK
VH 2: EVQLVESGGGLVQPGGSLRLSCAASGFTFNTYAMNWVRQAPGKGLEWVARIRSKYNNYATYYAASVKGRFTISRDDSKNSLYLQMNSLKTEDTAVYYCARHGNFGNSYVSWFAYWGQGTLVTVSS
VL 2: QTVVTQEPSLTVSPGGTVTLTCRSSTGAVTTSNYANWVQQKPGQAPRGLIGGTNKRAPGTPARFSGSLLGGKAALTLSGVQPEDEAEYYCALWYSNLWVFGGGTKLTVL
notes: IgG4-PAA bispecific; also called GC5B332 x CD3B219
Consider B1, for which the “T cell mediated target cell killing, Cyno GPRC5D EC50” value in the assay with cyno GPRC5D amounted to 2.82 nM. The binding result with human GPRC5D [1] is on record as “binds”.

B2: GC5B602 (antibody, IgG1, V domains shown)
VH: QVQLVQSGAEVKKPGASVKVSCKASGYSFTGYTMNWVRQAPGQGLEWMGLINPYNGDTNYAQKLQGRVTMTTDTSTSTAYMELRSLRSDDTAVYYCARVALRVALDYWGQGTLVTVSS
VL: DIQMTQSPSSLSASVGDRVTITCKASQNVATHVGWYQQKPGKAPKRLIYSASYRYSGVPSRFSGSGSGTEFTLTISNLQPEDFATYYCQQYNRYPYTFGQGTKLEIK
notes: IgG1 form of GC5B515
B2 yielded an EC50 in the assay with human GPRC5D [2] of 135 nM.
